Each sequence was assayed against T1, VPA1365-His (Vibrio parahaemolyticus RIMD2210633) (UniProt Q87GF1) (assay: EMSA). Conditions: EMSA: 30 nM 5'-FAM probe, 20 µL with 4 µL 5x buffer (10 mM NaCl, 0.1 mM DTT, 0.1 mM EDTA, 10 mM Tris, pH 7.4; unclear if 5x or final), 25°C, 0.5 h, 6% PAGE.
T1 sequence: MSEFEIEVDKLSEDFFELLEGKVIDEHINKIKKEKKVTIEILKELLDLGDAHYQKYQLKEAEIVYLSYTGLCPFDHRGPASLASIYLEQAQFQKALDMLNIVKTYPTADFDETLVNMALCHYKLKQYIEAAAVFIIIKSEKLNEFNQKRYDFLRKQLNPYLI

| Sequence | binding |
| --- | --- |
| CGCTCTATAATGCTGACCCTTTTATCAATACTGTACTTATTTCCACAACAAAAAAGCGTACAGTTATTTACTTTTTTACCTTTAACTTGCTGTGAAAATAATATCGTCGACCTGCAGGCA (double strand) [mshA promoter] | binds |
| GCGCATAGCTGTTATAAGAATCCTCAATTCATTTCAATTAATGAGTATTCAGTCAATTAATAGAGCGATTTACTTCATAAAACCATTTTATTTTTATGGACTTAGCTCAAGAAATGACAGCATTATTAACTAATTTTAATAATTTGAGGAATGCATCAATAACTATTTCATATAAACACGATTTACTGTTGACTAAGTTTTATAAATATCGATGATCAGCAAGTTAAACTGAACGAAGTTTTATTCATTTGAAAGCGCAAGAACATGACTATCGTCGACCTGCAGGCA (double strand) [scrG promoter (PscrG)] | binds |
| TGCCTGCAGGTCGACGATCACAAGCAACAAAATTCATATTACTTCAACTAACTCAGTAAGTTGTAAGTAATTCATCATTAAAAAGGGCCACTAGGCCCTTTCTTTTTATCCATTAAAAAATAGCATTACTCGCAAAACTCTGCATACGATATGCAACTTTCTACCAAAGAGTTTTACCTCACTCGAGACCCCATCTCTTCCCCATTTTCAACCTTTATGAAGTCTCCATAATCCTTCGCTAATGCAAGGGCATTATTTATTTCATTAAGAAGGAAAG (double strand) [pilA promoter] | binds |

From article PMC12016518
